Measurements reported in patent publication US12060424 (AMUNIX PHARMACEUTICALS, dated 2024).
Numbering of substitutions follows the chain as printed.

B1: AC1684 protease-untreated anti-EpCAM×anti-CD3 ProTIA (bispecific antibody)
chain: DIQMTQSPSSLSASVGDRVTITCRSTKSLLHSNGITYLYWYQQKPGKAPKLLIYQMSNLASGVPSRFSSSGSGTDFTLTISSLQPEDFATYYCAQNLEIPRTFGQGTKVEIKGATPPETGAETESPGETTGGSAESEPPGEGQVQLVQSGPGLVQPGGSVRISCAASGYTFTNYGMNWVKQAPGKGLEWMGWINTYTGESTYADSFKGRFTFSLDTSASAAYLQINSLRAEDTAVYYCARFAIKGDYWGQGTLLTVSSGGGGSDIQMTQSPSSLSASVGDRVTITCRASQDIRNYLNWYQQKPGKAPKLLIYYTSRLESGVPSRFSGSGSGTDYTLTISSLQPEDFATYYCQQGNTLPWTFGQGTKVEIKGATPPETGAETESPGETTGGSAESEPPGEGEVQLVESGGGLVQPGGSLRLSCAASGYSFTGYTMNWVRQAPGKGLEWVALINPYKGVSTYNQKFKDRFTISVDKSKNTAYLQMNSLRAEDTAVYYCARSGYYGDSDWYFDVWGQGTLVTVSSGTAEAASASGESGRAANTEPPELGAGPGSPAGSPTSTEEGTSESATPESGPGTSTEPSEGSAPGSPAGSPTSTEEGTSTEPSEGSAPGTSTEPSEGSAPGTSESATPESGPGSEPATSGSETPGSEPATSGSETPGSPAGSPTSTEEGTSESATPESGPGTSTEPSEGSAPGTSTEPSEGSAPGSPAGSPTSTEEGTSTEPSEGSAPGTSTEPSEGSAPGTSESATPESGPGTSTEPSEGSAPGTSESATPESGPGSEPATSGSETPGTSTEPSEGSAPGTSTEPSEGSAPGTSESATPESGPGTSESATPESGPGSPAGSPTSTEEGTSESATPESGPGSEPATSGSETPGTSESATPESGPGTSTEPSEGSAPGTSTEPSEGSAPGTSTEPSEGSAPGTSTEPSEGSAPGTSTEPSEGSAPGTSTEPSEGSAPGSPAGSPTSTEEGTSTEPSEGSAPGTSESATPESGPGSEPATSGSETPGTSESATPESGPGSEPATSGSETPGTSESATPESGPGTSTEPSEGSAPGTSESATPESGPGSPAGSPTSTEEGSPAGSPTSTEEGSPAGSPTSTEEGTSESATPESGPGTSTEPSEGSAPGTSESATPESGPGSEPATSGSETPGTSESATPESGPGSEPATSGSETPGTSESATPESGPGTSTEPSEGSAPGSPAGSPTSTEEGTSESATPESGPGSEPATSGSETPGTSESATPESGPGSPAGSPTSTEEGSPAGSPTSTEEGTSTEPSEGSAPGTSESATPESGPGTSESATPESGPGTSESATPESGPGSEPATSGSETPGSEPATSGSETPGSPAGSPTSTEEGTSTEPSEGSAPGTSTEPSEGSAPGSEPATSGSETPGTSESATPESGPGTSTEPSEGSAPGHHHHHH
B2: AC1715 protease-untreated anti-EpCAM×anti-CD3 ProTIA (bispecific antibody)
chain: B1 chain with E541T, P543A, E544G, G546T, A547G, G548P
B3: AC1686 protease-untreated anti-EpCAM×anti-CD3 ProTIA (bispecific antibody)
chain: B1 chain with S534P, T540H, P543S, E544G, G546T, A547E
B4: AC1685 protease-untreated anti-EpCAM×anti-CD3 ProTIA (bispecific antibody)
chain: B1 chain with E541A, P543E, E544G, G546T, A547G, G548P
B5: AC1714 protease-untreated anti-EpCAM×anti-CD3 ProTIA (bispecific antibody)
chain: B1 chain with S534A, A537S, T540H, E541T, P543A, E544G, G546T, A547G, G548P
B6: AC1695 protease-untreated anti-EpCAM×anti-CD3 ProTIA (bispecific antibody)
chain: DIQMTQSPSSLSASVGDRVTITCRSTKSLLHSNGITYLYWYQQKPGKAPKLLIYQMSNLASGVPSRFSSSGSGTDFTLTISSLQPEDFATYYCAQNLEIPRTFGQGTKVEIKGATPPETGAETESPGETTGGSAESEPPGEGQVQLVQSGPGLVQPGGSVRISCAASGYTFTNYGMNWVKQAPGKGLEWMGWINTYTGESTYADSFKGRFTFSLDTSASAAYLQINSLRAEDTAVYYCARFAIKGDYWGQGTLLTVSSGGGGSDIQMTQSPSSLSASVGDRVTITCRASQDIRNYLNWYQQKPGKAPKLLIYYTSRLESGVPSRFSGSGSGTDYTLTISSLQPEDFATYYCQQGNTLPWTFGQGTKVEIKGATPPETGAETESPGETTGGSAESEPPGEGEVQLVESGGGLVQPGGSLRLSCAASGYSFTGYTMNWVRQAPGKGLEWVALINPYKGVSTYNQKFKDRFTISVDKSKNTAYLQMNSLRAEDTAVYYCARSGYYGDSDWYFDVWGQGTLVTVSSGTAEAASASGTTGRAGEAANLTPAGLTGPPGSPAGSPTSTEEGTSESATPESGPGTSTEPSEGSAPGSPAGSPTSTEEGTSTEPSEGSAPGTSTEPSEGSAPGTSESATPESGPGSEPATSGSETPGSEPATSGSETPGSPAGSPTSTEEGTSESATPESGPGTSTEPSEGSAPGTSTEPSEGSAPGSPAGSPTSTEEGTSTEPSEGSAPGTSTEPSEGSAPGTSESATPESGPGTSTEPSEGSAPGTSESATPESGPGSEPATSGSETPGTSTEPSEGSAPGTSTEPSEGSAPGTSESATPESGPGTSESATPESGPGSPAGSPTSTEEGTSESATPESGPGSEPATSGSETPGTSESATPESGPGTSTEPSEGSAPGTSTEPSEGSAPGTSTEPSEGSAPGTSTEPSEGSAPGTSTEPSEGSAPGTSTEPSEGSAPGSPAGSPTSTEEGTSTEPSEGSAPGTSESATPESGPGSEPATSGSETPGTSESATPESGPGSEPATSGSETPGTSESATPESGPGTSTEPSEGSAPGTSESATPESGPGSPAGSPTSTEEGSPAGSPTSTEEGSPAGSPTSTEEGTSESATPESGPGTSTEPSEGSAPGTSESATPESGPGSEPATSGSETPGTSESATPESGPGSEPATSGSETPGTSESATPESGPGTSTEPSEGSAPGSPAGSPTSTEEGTSESATPESGPGSEPATSGSETPGTSESATPESGPGSPAGSPTSTEEGSPAGSPTSTEEGTSTEPSEGSAPGTSESATPESGPGTSESATPESGPGTSESATPESGPGSEPATSGSETPGSEPATSGSETPGSPAGSPTSTEEGTSTEPSEGSAPGTSTEPSEGSAPGSEPATSGSETPGTSESATPESGPGTSTEPSEGSAPGHHHHHH

Assays:
[1] = molecular target: T1, human EpCAM expressed on cells (CHO cells stably transfected with human EpCAM); EpCAM-positive human tumor … (human, UniProt P16422 24-314); test: cell-based or functional assay
T1 sequence (looked up): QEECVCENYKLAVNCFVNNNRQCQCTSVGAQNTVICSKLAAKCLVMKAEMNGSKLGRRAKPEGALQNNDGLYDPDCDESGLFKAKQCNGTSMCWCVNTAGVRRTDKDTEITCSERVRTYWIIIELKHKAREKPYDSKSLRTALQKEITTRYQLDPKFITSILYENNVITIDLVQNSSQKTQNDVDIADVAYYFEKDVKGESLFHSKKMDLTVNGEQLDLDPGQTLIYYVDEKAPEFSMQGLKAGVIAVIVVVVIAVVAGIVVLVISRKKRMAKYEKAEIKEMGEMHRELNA

[2] = molecular target: recombinant human CD3 epsilon & delta (rhCD3ε & δ), Creative BioMart cat #CD3E&CD3D-219H (human) (UniProt P07766); test: sandwich ELISA: rhCD3ε & δ coated, biotinylated anti-XTEN antibody detection
recombinant human CD3 epsilon & delta (rhCD3ε & δ), Creative BioMart cat #CD3E&CD3D-219H (human), sequence (P07766 23-126, stated change not applied, chain 1 of 2): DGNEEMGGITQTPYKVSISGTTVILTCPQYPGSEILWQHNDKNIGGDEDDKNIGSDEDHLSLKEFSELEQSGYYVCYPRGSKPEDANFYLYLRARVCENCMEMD
recombinant human CD3 epsilon & delta (rhCD3ε & δ), Creative BioMart cat #CD3E&CD3D-219H (human), sequence (P04234 22-105, stated change not applied, chain 2 of 2, further chain): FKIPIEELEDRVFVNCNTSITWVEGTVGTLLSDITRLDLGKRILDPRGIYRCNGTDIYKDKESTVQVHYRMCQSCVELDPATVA

Row | Binder | EC50 (pM), caspase 3/7 cytotoxicity, PBMC with HCT-116 cells 10:1 [1] [pM] | EC50 (pM), caspase 3/7 cytotoxicity, PBMC with HPAF-II cells 10:1 [1] [pM] | EC50 (pM), caspase 3/7 cytotoxicity, PBMC with MDA-MB-231 cells 10:1 [1] [pM] | EC50 [2] [µg/mL]
1 | B1 | 32 | 24 | 12200 | 0.031
2 | B2 | 20 | 14 | 1190 | 0.034
3 | B3 | 240 | 118 | 2680 | 0.026
4 | B4 | 27 | 29 | 4340 | 0.029
5 | B5 | 52 | 20 | 1740 | 0.03
6 | B6 | 53 | 18 | 3750 | 0.028
